Patent US20220282217A1 (BIONTECH US, published 2022)

How the values were obtained:
[1] = molecular target: T1, HLA class I molecule A02.01; assay: competition with radiolabeled reference peptide on purified MHC I
T1 construct: Purified MHC class I complex; also called HLA-A02:01
Experimental: (§1) Peptides were incubated at varying concentrations with these complexes for 2 days, and the amount of remaining radiolabeled peptide bound to […] was measured using size exclusion gel-filtration.

[2] = molecular target: T1, HLA class I molecule A02.01; assay: pMHC-I dissociation half-life, 125I-b2m
Experimental: (§2) Briefly, synthetic genes encoding biotinylated MHC-I heavy and light chains are expressed in E. coli and purified from inclusion bodies using standard methods. […] These reactions are carried out in streptavidin coated microplates to bind the biotinylated MHC-I heavy chains to the surface and allow measurement of radiolabeled light chain to monitor complex formation. Dissociation is initiated by addition of higher concentrations of unlabeled light-chain and incubation at 37° C. Stability is defined as the length of time in hours it takes for half of the complexes to dissociate, as measured by scintillation counts.

HLA-A02.01 [3] = molecular target: HLA-A02.01 (human); assay: pMHC-I complex dissociation at 37 C, 125I-b2m, half-life
Experimental: as §2

HLA-A02.01 [4] = molecular target: HLA-A02.01 (human); assay: competition vs radiolabeled reference peptide on purified MHC I, gel filtration
Experimental: as §1

Row | Binder | IC50 [1] [nM] | Stability (T1/2 (h)) [2] [h] | Stability (T1/2 (h)) (HLA-A02.01 [3]) [h] | IC50 (HLA-A02.01 [4]) [nM]
1 | IANLLGACTI (also called KIT, V654A) | 6420 | 0 | – | –
2 | HMNIANLLGA (also called KIT, V654A) | 430 | 0 | – | –
3 | VLTVTSTDV (also called FGFR3: TACC3) | – | – | 1.1 | 295
4 | TIGGPTLVII (also called KIT, T670I) | 10700 | 0 | – | –
5 | IIEYCCYGDL (also called KIT, T670I) | 7310 | 0 | – | –
6 | VMAYVMAGV (also called HER2, G776insYVMA) | 2 | 16.5 | – | –
7 | FILMELMAGG (also called ALK, L1196M) | – | – | 0 | 1580
8 | LQMDFLVHPA (likely a print error; also called APC, VHPA) […] | – | – | 1.5 | 68
9 | CLADVLLSV (also called APC, AVEW) | – | – | 24 | 219
10 | IIEFMTYGNL (also called ABL1, T315I) | – | – | 0 | 9700
11 | ILMELMAGG (also called ALK, L1196M) | – | – | 0.5 | 223
12 | FQNGKMALS (also called FRG1B, L52S) | 3280 | 0 | – | –
13 | VIIEYCCYG (also called KIT, T670I) | 191 | 0.5 | – | –
14 | VLLSVHLIV (also called APC, AVEW) | – | – | 11 | 72
15 | YLGNHMNIAN (also called KIT, V654A) | 1340 | 0 | – | –

Further lines, results first:

Row | IC50 [1] [nM] | Stability (T1/2 (h)) [2] [h] | Stability (T1/2 (h)) (HLA-A02.01 [3]) [h] | IC50 (HLA-A02.01 [4]) [nM] | Binder
16 | – | – | 6.4 | 11 | KVLQMDFLV (also called APC, VHPA)
17 | 128 | 0.3 | – | – | MNIANLLGA (also called KIT, V654A)
18 | – | – | 0 | 3450 | ILMELMAGGD (also called ALK, L1196M)
19 | – | – | 0 | 779 | IIIEFMTYG (also called ABL1, T315I)
20 | – | 0 | – | – | LLPIPPLSPS (also called MYC, T58I)
21 | – | – | 0 | 186 | YIIIEFMTYG (also called ABL1, T315I)
22 | 1090 | 0 | – | – | IIEYCFYGDL (also called PDGFRa, T674I)
23 | – | – | 8.9 | 311 | LMELMAGGDL (also called ALK, L1196M)
24 | 226 | 0.8 | – | – | ALSASNSCFI (also called FRG1B, L52S)
25 | – | – | 0.4 | 387 | KLGGGQHGEV (also called ABL1, Y253H)
